The labels stand for the following.
B1: peptide F4ac 200–218 [modified: FITC-Ahx on the N-terminus; FITC-Ahx on the N-terminus] [Escherichia coli] / porcine aminopeptidase N (APN), His-tagged whole protein [porcine] (parent complex)
chain 1: TKLFGSLSRNDILGQIQRV
chain 2: MAKGFYISKALGILGILLGVAAVATIIALSVVYAQEKNKNAEHVPQAPTSPTITTTAAITLDQSKPWNRYRLPTTLLPDSYNVTLRPYLTPNADGLYIFKGKSIVRLLCQEPTDVIIIHSKKLNYTTQGHMVVLRGVGDSQVPEIDRTELVELTEYLVVHLKGSLQPGHMYEMESEFQGELADDLAGFYRSEYMEGNVKKVLATTQMQSTDARKSFPCFDEPAMKATFNITLIHPNNLTALSNMPPKGSSTPLAEDPNWSVTEFETTPVMSTYLLAYIVSEFQSVNETAQNGVLIRIWARPNAIAEGHGMYALNVTGPILNFFANHYNTSYPLPKSDQIALPDFNAGAMENWGLVTYRENALLFDPQSSSISNKERVVTVIAHELAHQWFGNLVTLAWWNDLWLNEGFASYVEYLGADHAEPTWNLKDLIVPGDVYRVMAVDALASSHPLTTPAEEVNTPAQISEMFDSISYSKGASVIRMLSNFLTEDLFKEGLASYLHAFAYQNTTYLDLWEHLQKAVDAQTSIRLPDTVRAIMDRWTLQMGFPVITVDTKTGNISQKHFLLDSESNVTRSSAFDYLWIVPISSIKNGVMQDHYWLRDVSQAQNDLFKTASDDWVLLNVNVTGYFQVNYDEDNWRMIQHQLQTNLSVIPVINRAQVIYDSFNLATAHMVPVTLALDNTLFLNGEKEYMPWQAALSSLSYFSLMFDRSEVYGPMKKYLRKQVEPLFQHFETLTKNWTERPENLMDQYSEINAISTACSNGLPQCENLAKTLFDQWMSDPENNPIHPNLRSTIYCNAIAQGGQDQWDFAWGQLQQAQLVNEADKLRSALACSNEVWLLNRYLGYTLNPDLIRKQDATSTINSIASNVIGQPLAWDFVQSNWKKLFQDYGGGSFSFSNLIQGVTRRFSSEFELQQLEQFKKNNMDVGFGSGTRALEQALEKTKANIKWVKENKEVVLNWFIEHS
B2: peptide F4ad 200–218 [modified: FITC-Ahx on the N-terminus; FITC-Ahx on the N-terminus] [Escherichia coli] / porcine aminopeptidase N (APN), His-tagged whole protein [porcine] (parent complex)
chain 1: ARTELFGSLSKNDILGQIQ
chain 2: B1 chain 2
B3: peptide F4ab 148–160 [modified: FITC-Ahx on the N-terminus; FITC-Ahx on the N-terminus] [Escherichia coli] / porcine aminopeptidase N (APN), His-tagged whole protein [porcine] (parent complex)
chain 1: NASYAGVFGKGGV
chain 2: B1 chain 2

In the first assay the parent is B1. Description: ELISA; parent: 29; read off a plot. On the technique in general: An ELISA detects its analyte on a solid surface through an enzyme-linked reagent.
For the variant chain 1 TKLFGSLSRNDILAQIQRV, the response is ~6.5 relative value APN/PBS at 450 nm.

Consider chain 1 TKLFGSLSRNDILGQIQAV, for which the response was ~6.5 relative value APN/PBS at 450 nm. As for chain 1 TKLFGSASRNDILGQIQRV, the response was ~6.5 relative value APN/PBS at 450 nm.

Regarding chain 1 TKLFASLSRNDILGQIQRV, the response was ~20 relative value APN/PBS at 450 nm. Take chain 1 TKLFGSLARNDILGQIQRV: the response is ~27 relative value APN/PBS at 450 nm. For chain 1 TKLFGSLSRNDIAGQIQRV, the response is ~13 relative value APN/PBS at 450 nm. On to chain 1 TALFGSLSRNDILGQIQRV, for which the response was ~48 relative value APN/PBS at 450 nm. Turning to chain 1 TKAFGSLSRNDILGQIQRV, the response is ~73 relative value APN/PBS at 450 nm. On the same count and under the same terms, under chain 1 TKLFGSLSRADILGQIQRV stands ~15 relative value APN/PBS at 450 nm.

In the next assay the parent is B2. Description: ELISA; parent: 55; read off a plot.
On to chain 1 ERTELFGSLSKNDILGQIQ, for which the response was ~53 relative value APN/PBS at 450 nm.

The variants in the next assay derive from B3. Description: ELISA; parent: 30; read off a plot.
On to chain 1 NASYAGVFGKGAV, for which the response was ~28 relative value APN/PBS at 450 nm.
